# From patent US20170082609A1
# Experiments:
# [1] = target: CDHR3 Cys529→Tyr variant (human) (UniProt Q6ZTQ4); assay: cell-based or functional assay
# [2] = target: CDHR3 Cys529→Tyr variant (human) (UniProt Q6ZTQ4); assay: virus bound to HeLa-E8 cells 2 h p.i., viral RNA by real-time PCR
# [3] = target: CDHR3 Cys529→Tyr variant (human) (UniProt Q6ZTQ4); assay: virus bound to HeLa-E8 monolayers, viral RNA by real-time PCR
# Chain of UniProt Q6ZTQ4 (Q6ZTQ4 other isoform, or with tags, fused parts or gaps mutant): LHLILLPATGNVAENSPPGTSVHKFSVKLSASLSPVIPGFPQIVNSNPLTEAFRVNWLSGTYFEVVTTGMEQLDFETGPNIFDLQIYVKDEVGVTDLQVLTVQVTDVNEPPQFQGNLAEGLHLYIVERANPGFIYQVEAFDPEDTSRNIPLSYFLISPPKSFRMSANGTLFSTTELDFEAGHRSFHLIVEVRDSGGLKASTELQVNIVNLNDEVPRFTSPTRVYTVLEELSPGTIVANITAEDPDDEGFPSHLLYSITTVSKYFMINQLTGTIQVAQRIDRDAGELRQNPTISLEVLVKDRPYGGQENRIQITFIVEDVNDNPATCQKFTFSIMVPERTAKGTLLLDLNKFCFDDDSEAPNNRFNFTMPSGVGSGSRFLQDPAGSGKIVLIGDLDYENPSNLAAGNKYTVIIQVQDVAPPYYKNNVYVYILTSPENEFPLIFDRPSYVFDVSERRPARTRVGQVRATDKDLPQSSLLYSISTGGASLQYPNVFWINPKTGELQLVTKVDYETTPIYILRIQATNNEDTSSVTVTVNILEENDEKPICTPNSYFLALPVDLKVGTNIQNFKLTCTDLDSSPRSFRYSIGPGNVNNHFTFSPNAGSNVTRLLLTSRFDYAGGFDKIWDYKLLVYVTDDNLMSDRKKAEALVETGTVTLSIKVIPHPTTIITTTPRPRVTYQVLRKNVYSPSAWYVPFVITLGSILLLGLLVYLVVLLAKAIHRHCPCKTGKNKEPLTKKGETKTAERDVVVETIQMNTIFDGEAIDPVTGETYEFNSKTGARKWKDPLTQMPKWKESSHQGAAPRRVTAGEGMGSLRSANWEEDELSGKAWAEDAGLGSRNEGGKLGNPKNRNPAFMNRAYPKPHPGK
substance,measurement,setting,value
HeLa-E8 adapted RV-C15 (RV-C15a),replication in HeLa-E8 compared to control HeLa cells (orders of magnitude),[1],2
same,binding compared to that of RV-C15-wt,[2],> 1 log
same,fold increase of virus binding against the parental isolate,[3],> 10 fold
